Measured values reported in paper PMC4856149.
Read-outs that look alike come from different tables or passages of the source.

Assays:
recombinant GST-Arc [1] = biological target: recombinant GST-Arc (UniProt Q63053); test: Scatchard analysis
recombinant GST-Arc [2] = biological target: recombinant GST-Arc (UniProt Q63053); test: Scatchard analysis; remark: listed apart in the source

UniProt Q63053, sequence (Q63053 whole entry): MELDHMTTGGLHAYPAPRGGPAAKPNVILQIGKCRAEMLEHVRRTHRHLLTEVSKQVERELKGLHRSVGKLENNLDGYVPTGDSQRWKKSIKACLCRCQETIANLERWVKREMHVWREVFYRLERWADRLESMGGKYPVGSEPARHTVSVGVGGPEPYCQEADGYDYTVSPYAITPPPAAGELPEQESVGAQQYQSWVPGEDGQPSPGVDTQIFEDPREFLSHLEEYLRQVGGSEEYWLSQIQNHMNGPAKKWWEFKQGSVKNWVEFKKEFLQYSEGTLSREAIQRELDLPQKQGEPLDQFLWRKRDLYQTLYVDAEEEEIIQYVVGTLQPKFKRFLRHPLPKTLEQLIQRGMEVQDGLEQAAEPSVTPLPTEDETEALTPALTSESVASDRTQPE

Kd (recombinant GST-Arc [1]): 10 µM | Kd (recombinant GST-Arc [2]): 60 µM
Substance: recombinant CaMKIIα (from UniProt P11275 1-478) (enzyme)
